Reference: patent US20230374157A1

Columns and labels:
[1] = molecular target: His-tagged human HER3 extracellular domain (Acro ER3-H5223) (human) (UniProt P21860); assay: BLI, antibody on AHC tips, monomeric HER3 ECD in solution, 1:1 fit
[2] = molecular target: His-tagged human EGFR extracellular domain (expressed and purified in-house) (human) (UniProt P00533); assay: BLI, antibody on AHC tips, monomeric EGFR ECD in solution, 1:1 fit

B1: SI-1C4 (duligotuzumab), 2-in-1 bispecific antibody against EGFR and HER3 (bispecific antibody, from a related filing, V domains shown)
VH: EVQLVESGGGLVQPGGSLRLSCAASGFTLSGDWIHWVRQAPGKGLEWVGEISAAGGYTDYADSVKGRFTISADTSKNTAYLQMNSLRAEDTAVYYCARESRVSFEAAMDYWGQGTLVTVSS
VL: DIQMTQSPSSLSASVGDRVTITCRASQNIATDVAWYQQKPGKAPKLLIYSASFLYSGVPSRFSGSGSGTDFTLTISSLQPEDFATYYCQQSEPEPYTFGQGTKVEIKR
[1]
  Kd: 4.29 nM
  koff: 0.000877 s⁻¹
  kon: 205000 M⁻¹ s⁻¹
[2]
  Kd: 14.6 nM
  koff: 0.00438 s⁻¹
  kon: 300000 M⁻¹ s⁻¹
